Measurements from patent US20070166779.

What was measured:
[1] = test system: SLPI present in human saliva
[2] = test system: recombinant human SLPI
recombinant human SLPI, sequence (chain, as listed by the source): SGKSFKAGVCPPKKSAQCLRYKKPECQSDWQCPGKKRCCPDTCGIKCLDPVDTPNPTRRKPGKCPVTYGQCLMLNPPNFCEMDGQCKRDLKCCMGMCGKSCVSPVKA

tryptase, sequence (chain, as listed by the source): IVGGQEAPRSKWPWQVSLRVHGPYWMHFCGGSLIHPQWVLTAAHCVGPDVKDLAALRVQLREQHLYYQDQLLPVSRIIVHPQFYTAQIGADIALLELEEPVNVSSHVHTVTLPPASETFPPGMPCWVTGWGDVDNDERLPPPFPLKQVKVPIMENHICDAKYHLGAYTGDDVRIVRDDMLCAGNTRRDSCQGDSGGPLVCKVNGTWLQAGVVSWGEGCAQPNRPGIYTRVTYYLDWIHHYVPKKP

## tryptase
[1]
  cleavage of SLPI in human saliva, Western analysis: The larger SLPI cleavage product was not observed when the saliva samples were incubated with cathepsin G, tryptase and proteinase 3
[2]
  cleavage of rSLPI, LC/MS (1 ug rSLPI, 50 ng protease, 5 hours): did not result in the formation of the second peak
  cleavage of the reduced form of rSLPI: Reduction of the rSLPI samples in the presence of the proteases did result in cleavage of the SLPI protein
